Assay results taken from patent publication US20250388669A1 (published 2025).
Blank lines part the entries; values can stand above or below the binder they belong to.

Experiments:
[1] = target: PD-1 (binding assay) (UniProt Q15116 25-167, limits assumed); test: FCM or ELISA, graded
[2] = target: T1, PD-1 (human, UniProt Q15116 25-167, limits assumed); test: FCM or ELISA
T1 construct: The reporter assay used Jurkat T cells expressing human PD-1
T1 sequence (Q15116 25-167 limits assumed): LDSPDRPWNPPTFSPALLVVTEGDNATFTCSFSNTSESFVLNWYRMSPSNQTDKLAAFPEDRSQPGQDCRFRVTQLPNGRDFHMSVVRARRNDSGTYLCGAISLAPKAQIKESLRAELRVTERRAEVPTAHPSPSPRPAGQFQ

Chain of PD-1 (binding assay) (Q15116 25-167 limits assumed): as above

B1: Ly2280 (bispecific antibody)
heavy 1: not shown
heavy 2: QVTLKESGPALVKPTQTLTLTCTFSGFSLSTSGTCVSWIRQPPGKALEWLATICWEDSKGYNPSLKSRLTISKDTSKNQAVLTMTNMDPVDTATYYCARREDSGYFWFPYWGQGTLVTVSSASTKGPSVFPLAPSSKSTSGGTAALGCLVKDYFPEPVTVSWNSGALTSGVHTFPAVLQSSGLYSLSSVVTVPSSSLGTQTYICNVNHKPSNTKVDKKVEPKSCGGGGSGGGGSGGGGSGGGGSDIQMTQSPSSVSASVGDRVTITCRASQGIYSWLAWYQQKPGKAPNLLIYTASTLQSGVPSRFSGSGSGTDFTLTISSLQPEDFATYYCQQANIFPLTFGGGTKVEIKGGGGSDKTHTCPPCPAPEAAGPSVFLFPPKPKDTLMISRTPEVTCVVVDVSHEDPEVKFNWYVDGVEVHNAKTKPREEQYNSTYRVVSVLTVLHQDWLNGKEYKCKVSNKALPAPIEKTISKAKGQPREPQVYTLPPSREEMTKNQVSLSCAVKGFYPSDIAVEWESNGQPENNYKTTPPVLDSDGSFFLVSKLTVDKSRWQQGNVFSCSVMHEALHNRFTQKSLSLSPG
light: NIQMTQSPSSLSASVGDRVTITCKAGQNVNNYLAWYQQKPGKAPKVLIFNANSLQTGVPSRFSGSGSGTDFTLTISSLQPEDFATYYCQQYNSWPTFGGGTKVEIKRTVAAPSVFIFPPSDEQLKSGTASVVCLLNNFYPREAKVQWKVDNALQSGNSQESVTEQDSKDSTYSLSSTLTLSKADYEKHKVYACEVTHQGLSSPVTKSFNRGEC
notes: PD-1 Fabs (Ly516) x central CD40 Fv (TM383)
binding result [1]: binds

B2: Ly2405 (bispecific antibody, human IgG1, kappa)
chain 1: not shown
chain 2: QVTLKESGPALVKPTQTLTLTCTFSGFSLSTSGTCVSWIRQPPGKALEWLATICWEDSKGYNPSLKSRLTISKDTSKNQAVLTMTNMDPVDTATYYCARREDSGYFWFPYWGQGTLVTVSSASTKGPSVFPLAPSSKSTSGGTAALGCLVKDYFPEPVTVSWNSGALTSGVHTFPAVLQSSGLYSLSSVVTVPSSSLGTQTYICNVNHKPSNTKVDKKVEPKSCDKTHTCPPCPAPEAAGPSVFLFPPKPKDTLMISRTPEVTCVVVDVSHEDPEVKFNWYVDGVEVHNAKTKPREEQYNSTYRVVSVLTVLHQDWLNGKEYKCKVSNKALPAPIEKTISKAKGQPREPQVYTLPPSREEMTKNQVSLSCAVKGFYPSDIAVEWESNGQPENNYKTTPPVLDSDGSFFLVSKLTVDKSRWQQGNVFSCSVMHEALHNRFTQKSLSLSPGGGGGSGGGGSGGGGSGGGGSDIQMTQSPSSVSASVGDRVTITCRASQGIYSWLAWYQQKPGKAPNLLIYTASTLQSGVPSRFSGSGSGTDFTLTISSLQPEDFATYYCQQANIFPLTFGGGTKVEIK
light: B1 light
notes: PD-1/CD40: two PD-1 Fabs, terminal CD40 Fv (TM383)
binding result [2]: binds

B3: Ly2280 (bispecific antibody)
chain 1: not shown
chain 2: B1 heavy 2
light: B1 light
notes: PD-1/CD40: two PD-1 Fabs, central CD40 Fv (TM383)
binding result [2]: binds

More lines, now with the values ahead:

binding result [2]: binds
B4: Ly2281 (bispecific antibody)
chain 1: QVTLKESGPALVKPTQTLTLTCTFSGFSLSTSGTCVSWIRQPPGKALEWLATICWEDSKGYNPSLKSRLTISKDTSKNQAVLTMTNMDPVDTATYYCARREDSGYFWFPYWGQGTLVTVSSASTKGPSVFPLAPSSKSTSGGTAALGCLVKDYFPEPVTVSWNSGALTSGVHTFPAVLQSSGLYSLSSVVTVPSSSLGTQTYICNVNHKPSNTKVDKKVEPKSCGGGGSGGGGSGGGGSGGGGSQVQLVQSGAEVKKPGASVKVSCKASGYTFAGFEMHWVRQAPGQGLEWMGAIDPKTGGTDYNQKFKDRVTMTRDTSISTAYMELSRLRSDDTAVYYCARDLGYFDVWGQGTLVTVSSGGGGSDKTHTCPPCPAPEAAGPSVFLFPPKPKDTLMISRTPEVTCVVVDVSHEDPEVKFNWYVDGVEVHNAKTKPREEQYNSTYRVVSVLTVLHQDWLNGKEYKCKVSNKALPAPIEKTISKAKGQPREPQVYTLPPSREEMTKNQVSLWCLVKGFYPSDIAVEWESNGQPENNYKTTPPVLDSDGSFFLYSKLTVDKSRWQQGNVFSCSVMHEALHNHYTQKSLSLSPG
chain 2: QVTLKESGPALVKPTQTLTLTCTFSGFSLSTSGTCVSWIRQPPGKALEWLATICWEDSKGYNPSLKSRLTISKDTSKNQAVLTMTNMDPVDTATYYCARREDSGYFWFPYWGQGTLVTVSSASTKGPSVFPLAPSSKSTSGGTAALGCLVKDYFPEPVTVSWNSGALTSGVHTFPAVLQSSGLYSLSSVVTVPSSSLGTQTYICNVNHKPSNTKVDKKVEPKSCGGGGSGGGGSGGGGSGGGGSDIQMTQSPSSLSASVGDRVTITCRASQDIRSNLNWYQQKPGGAVKLLIYYTSRLHSGVPSRFSGSGSGTDYTLTISSLQPEDFATYFCQQSEKLPRTFGGGTKVEIRGGGGSDKTHTCPPCPAPEAAGPSVFLFPPKPKDTLMISRTPEVTCVVVDVSHEDPEVKFNWYVDGVEVHNAKTKPREEQYNSTYRVVSVLTVLHQDWLNGKEYKCKVSNKALPAPIEKTISKAKGQPREPQVYTLPPSREEMTKNQVSLSCAVKGFYPSDIAVEWESNGQPENNYKTTPPVLDSDGSFFLVSKLTVDKSRWQQGNVFSCSVMHEALHNRFTQKSLSLSPG
light: B1 light
notes: PD-1/CD137: two PD-1 Fabs, central CD137 Fv

binding result [2]: binds
B5: Ly2396 (bispecific antibody, human IgG1, kappa)
chain 1: QVTLKESGPALVKPTQTLTLTCTFSGFSLSTSGTCVSWIRQPPGKALEWLATICWEDSKGYNPSLKSRLTISKDTSKNQAVLTMTNMDPVDTATYYCARREDSGYFWFPYWGQGTLVTVSSASTKGPSVFPLAPSSKSTSGGTAALGCLVKDYFPEPVTVSWNSGALTSGVHTFPAVLQSSGLYSLSSVVTVPSSSLGTQTYICNVNHKPSNTKVDKKVEPKSCDKTHTCPPCPAPEAAGPSVFLFPPKPKDTLMISRTPEVTCVVVDVSHEDPEVKFNWYVDGVEVHNAKTKPREEQYNSTYRVVSVLTVLHQDWLNGKEYKCKVSNKALPAPIEKTISKAKGQPREPQVYTLPPSREEMTKNQVSLWCLVKGFYPSDIAVEWESNGQPENNYKTTPPVLDSDGSFFLYSKLTVDKSRWQQGNVFSCSVMHEALHNHYTQKSLSLSPGGGGGSGGGGSGGGGSGGGGSQVQLVQSGAEVKKPGASVKVSCKASGYTFAGFEMHWVRQAPGQGLEWMGAIDPKTGGTDYNQKFKDRVTMTRDTSISTAYMELSRLRSDDTAVYYCARDLGYFDVWGQGTLVTVSS
chain 2: QVTLKESGPALVKPTQTLTLTCTFSGFSLSTSGTCVSWIRQPPGKALEWLATICWEDSKGYNPSLKSRLTISKDTSKNQAVLTMTNMDPVDTATYYCARREDSGYFWFPYWGQGTLVTVSSASTKGPSVFPLAPSSKSTSGGTAALGCLVKDYFPEPVTVSWNSGALTSGVHTFPAVLQSSGLYSLSSVVTVPSSSLGTQTYICNVNHKPSNTKVDKKVEPKSCDKTHTCPPCPAPEAAGPSVFLFPPKPKDTLMISRTPEVTCVVVDVSHEDPEVKFNWYVDGVEVHNAKTKPREEQYNSTYRVVSVLTVLHQDWLNGKEYKCKVSNKALPAPIEKTISKAKGQPREPQVYTLPPSREEMTKNQVSLSCAVKGFYPSDIAVEWESNGQPENNYKTTPPVLDSDGSFFLVSKLTVDKSRWQQGNVFSCSVMHEALHNRFTQKSLSLSPGGGGGSGGGGSGGGGSGGGGSDIQMTQSPSSLSASVGDRVTITCRASQDIRSNLNWYQQKPGGAVKLLIYYTSRLHSGVPSRFSGSGSGTDYTLTISSLQPEDFATYFCQQSEKLPRTFGGGTKVEIR
light: B1 light
notes: PD-1/CD137: two PD-1 Fabs, terminal CD137 Fv
